Test results reported in paper PMC9036094, “Antigen-derived peptides engage the ER stress sensor IRE1α to curb dendritic cell cross-presentation” (The Journal of Cell Biology, 2022).

Experiments:
IRE1α in TAP1 KO BMDCs = assay: IRE1α activation in TAP1-disrupted BMDCs (immunoblot); type: cell-based, mouse; conditions: CRISPR/Cas9 TAP1; ovalbumin 500 μg/ml, 4 h
Experimental: Figure 1. Antigen pulsing of BMDCs activates IRE1α. (A) BMDCs were pulsed with ovalbumin (starting at 62.5 μg/ml and sequentially doubled) and analyzed by immunoblot (IB) for the indicated markers. (B) BMDCs were pulsed with ovalbumin (starting at 500 μg/ml and sequentially halved) or […] (1 μM), or stimulated with tunicamycin (1 μg/ml) or poly-I:C (25 μg/ml) for 4 h, and analyzed by IB. (C) BMDCs were pulsed with ovalbumin (500 μg/ml) for indicated time points and analyzed by IB. (D) BMDCs were pulsed for 4 h with ovalbumin or lysates derived from the indicated cell lines (500 μg/ml protein) and analyzed by IB. […] (F) Upon removal from bone marrow, total bone marrow cells were transfected with non-targeting control (NTC) or TAP1-targeting gRNAs, along with CRISPR/Cas9 delivery constructs. Cells were then subjected to standard BMDC-differentiation protocol, pulsed with ovalbumin (500 μg/ml) for 4 h, and analyzed by IB. All IB images are representative of at least two similar experiments, and molecular weights represent kD. Source data are available for this figure: SourceData F1.
Cells were lysed in PBS solution supplemented with 1X radioimmunoprecipitation assay buffer (Millipore) and 2X Halt protease-phosphatase inhibitor cocktail (Thermo Fisher Scientific). […]

[1] = test system: IRE1α in MyD88 KO Flt3L-derived BMDCs; assay: IRE1α activation in MyD88 KO Flt3L-derived BMDCs (immunoblot); type: cell-based, mouse; conditions: ovalbumin 500 μg/ml or LPS 10 μg/ml, 4 h
Experimental: Figure S1. Antigen pulsing of BMDCs activates IRE1α. (A) BMDCs were treated with MG132 (5 μM) or ovalbumin (500 μg/ml) for indicated time points and analyzed by IB. (B) BMDCs were pulsed with ovalbumin (500 μg/ml) and G9668 (3 μM) for indicated time periods and analyzed by IB. (C) Molecular structure, potency, and kinase selectivity of G9668. (D) Schematic representation of G9668 interaction with 220 kinases at 1 μM. Size and color of circles represent interaction strength. Analysis was conducted by KinomeScan. (E) BMDCs were pulsed for 4 h with APC-tagged ovalbumin or soluble CD4-Fc protein (500 μg/ml) with amiloride (10 μM); uptake of protein was assayed by flow cytometry (n = 3). (F) WT or MyD88 KO Flt3L-derived BMDCs were pulsed with ovalbumin (500 μg/ml) or soluble CD4-Fc protein (500 μg/ml), or treated with LPS (10 μg/ml) for 4 h and analyzed by IB. (G) MEFs and BMDCs were pulsed with ovalbumin or treated with Tg (100 nM) for 4 h and analyzed by IB. Images in A, B, F, and G represent at least two similar experiments, and molecular weights represent kD; E bar graphs represent mean ± SD from three independent biological repeats. Analysis for E was performed using unpaired, two-tailed t test; *, P ≤ 0.05; **, P ≤ 0.01. Source data are available for this figure: SourceData FS1. […]

B1: ovalbumin: classical protein antigen ovalbumin (Sigma-Aldrich) (protein)
chain: MGSIGAASMEFCFDVFKELKVHHANENIFYCPIAIMSALAMVYLGAKDSTRTQINKVVRFDKLPGFGDSIEAQCGTSVNVHSSLRDILNQITKPNDVYSFSLASRLYAEERYPILPEYLQCVKELYRGGLEPINFQTAADQARELINSWVESQTNGIIRNVLQPSSVDSQTAMVLVNAIVFKGLWEKAFKDEDTQAMPFRVTEQESKPVQMMYQIGLFRVASMASEKMKILELPFASGTMSMLVLLPDEVSGLEQLESIINFEKLTEWTSSNVMEERKIKVYLPRMKMEEKYNLTSVLMAMGITDVFSSSANLSGISSAESLKISQAVHAAHAEINEAGREVVGSAEAGVDAASVSEEFRADHPFLFCIKHIATNAVLFFGRCVSP
- IRE1α stimulation upon TAP1 disruption (IRE1α in TAP1 KO BMDCs): prevented IRE1α stimulation
- IRE1α activation, MyD88 KO BMDCs [1]: unimpeded IRE1α stimulation
